The values that follow come from patent US20250333541A1, “ANTIBODY, AND DRUG CONJUGATE AND USE THEREOF” (EVOPOINT BIOSCIENCES CO., LTD., priority 2022, published 2025).

Assay [1] has as its target T1, human TF-His (human, UniProt P13726 33-251).
T1 construct: range 33-251; Recombinant extracellular segment expressed in HEK293-EBNA cells and purified on a nickel column; also called h.TF-His; h; TF-his; not shown: His tag from vector pTT5-His
In words: antigenic protein-based ELISA on TF antigen (coating antigen not named, taken as human TF-His), antibody kept 14 days in human serum at 37 C. How it is done:
The ELISA plate was coated overnight with TF antigen (h.TF-His or c.TF-His antigen) in 50 mM carbonate coating buffer (CBS coating solution) at a coating concentration of 1 μg/mL in a volume of 100 μL at 4° C. The next day, the coating solution was removed, each well was washed once with 300 μL of PBS, and 100 μL of 2% BSA (Biotopped, A6020) in PBS was added to each well for blocking at 37° C. for 2 h. The test sample was subjected to a gradient dilution with 2% BSA in PBS to establish 11 concentration points. 100 μL of each of the samples obtained by the gradient dilution was added to the plate, and the plate was incubated at 37° C. for 2 h. The supernatant was removed, and each well was washed three times with 300 μL of PBST. 100 μL of HRP-conjugated secondary antibody in 2% BSA was added to each well, and the plate was incubated at 37° C. for 1 h. […] At the end of the incubation, the secondary antibody was removed, each well was washed five times with 300 μL of PBST, and 100 μL of TMB substrate (Huzhou InnoReagents Co., Ltd., TMB-S-004) was added to each well for color development for 5-20 min. 50 μL of 2 N HCl was added to each well to stop the reaction, and OD450 nm values were read using a microplate reader (manufacturer: MD, model: SpectraMax) and imported into GraphPad software for fitting and plotting to determine the binding of the samples to TF antigenic proteins. […]

For assay [2], the target named is T2, tissue factor (TF) on the surface of TF-positive tumor cells (human, UniProt P13726 33-295). Description: cell-based or functional assay.
In assay [3] the target is T1, human TF-His. Description: ELISA, plate coated with h.TF-His. How it is done: The ELISA plate was coated overnight with TF antigen (h.TF-His or c.TF-His antigen) in 50 mM carbonate coating buffer (CBS coating solution) at a coating concentration of 1 μg/mL in a volume of 100 μL at 4° C. The next day, the coating solution was removed, each well was washed once with 300 μL of PBS, and 100 μL of 2% BSA (Biotopped, A6020) in PBS was added to each well for blocking at 37° C. for 2 h. The test sample was subjected to a gradient dilution with 2% BSA in PBS to establish 11 concentration points. 100 μL of each of the samples obtained by the gradient dilution was added to the plate, and the plate was incubated at 37° C. for 2 h. The supernatant was removed, and each well was washed three times with 300 μL of PBST. 100 μL of HRP-conjugated secondary antibody in 2% BSA was added to each well, and the plate was incubated at 37° C. for 1 h. […] At the end of the incubation, the secondary antibody was removed, each well was washed five times with 300 μL of PBST, and 100 μL of TMB substrate (Huzhou InnoReagents Co., Ltd., TMB-S-004) was added to each well for color development for 5-20 min. 50 μL of 2 N HCl was added to each well to stop the reaction, and OD450 nm values were read using a microplate reader (manufacturer: MD, model: SpectraMax) and imported into GraphPad software for fitting and plotting to determine the binding of the samples to TF antigenic proteins.
The assay was performed as described in the general methods. Briefly, an ELISA plate coated with a human TF-his protein or a cynomolgus monkey TF-his protein was blocked with 2% BSA at 37° C. for 2 h, and each of the antibodies obtained by the gradient dilution (starting at 10 μg/mL, 3-fold graded dilution, 11 concentration points) was added. The plate was incubated at 37° C. for 2 h.
(An ELISA detects its analyte on a solid surface through an enzyme-linked reagent.)

Assay [4] deals with T2, tissue factor (TF) on the surface of …. In words: cell ELISA on fixed NCI-H358 cells. On the procedure: TF antigen-positive cells (MDA-MB-231 or NCI-H358 cells) were seeded into a 96-well plate at 5×10⁴ cells/well one day prior to the experiment. On the day of the experiment, the culture supernatant was removed, each well was washed once with 300 μL of PBS, and 100 μL of 4% paraformaldehyde was added to each well for immobilization at room temperature for 20 min. The paraformaldehyde was removed, and each well was washed twice with 300 μL of PBS, and 100 μL of 2% BSA in PBS was added to each well for blocking at 37° C. for 2 h. After the blocking was completed, 30 μL of the test sample (hybridoma supernatant or purified antibody) was added to each well and the plate was incubated at 37° C. for 2 h. The liquid was removed, and each well was washed three times with 300 μL of PBST. 100 μL of HRP-conjugated secondary antibody in 2% BSA was added to each well, and the plate was incubated at 37° C. for 1 h. […] The secondary antibody was removed, each well was washed five times with 300 μL of PBST, and 100 μL of TMB substrate (Huzhou InnoReagents Co., Ltd., TMB-S-004) was added to each well for color development for 5-20 min. 50 μL of 2 N HCl was added to each well to stop the reaction, and OD450 nm values were read using a microplate reader (manufacturer: MD, model: SpectraMax) to determine the binding of the samples to TF-positive cells.
The assay was performed as described in the general methods. Briefly, TF antigen-positive NCI-H358 cells were digested with trypsin, collected, seeded into a 96-well plate at 5×10⁴ cells/well and incubated overnight, and then immobilized with 4% paraformaldehyde. After the paraformaldehyde was removed and the cells were washed with PBS, the plate was blocked with 2% BSA at 37° C. for 2 h. Each of the antibodies obtained by the gradient dilution (starting at 10 μg/mL, 3-fold graded dilution, 11 concentration points) was added. The plate was incubated at 37° C. for 2 h.

Assay [5] has the same target. In words: flow cytometry on KYSE520 cells. How it is done: A TF low/medium-expressing cell line NCI-H358 (source: Nanjing Cobioer, CBP60136) and a TF high-expressing cell line KYSE520 (source: Nanjing Cobioer, CBP60658) were digested with trypsin, collected by centrifugation, and washed three times with pre-cooled PBS. The cells were resuspended in 1% BSA and seeded into a 96-well sharp-bottom plate at 3×10⁵ cells/well. Each of the antibodies obtained by the gradient dilution was added, and the plate was incubated at 4° C. for 1 h. The cells were washed three times with pre-cooled PBS. 1 μL of anti-human fluorescent secondary antibody (APC anti-human IgG Fc Antibody, Biolegend, 410712) was added to each well, and the plate was incubated at 4° C. for 0.5 h. The cells were washed three times with pre-cooled PBS, resuspended, and detected by a flow cytometer (Sony, LE-SA3800GA). The data were imported into GraphPad software for curve fitting.
On the technique in general: In flow cytometry, cells or beads pass a laser one at a time.

Substitutions are numbered along the chain they refer to.

B1: 22F11H5-hz1 (antibody, human IgG1, kappa, V domains shown)
VH: QVQLVQSGAEVKQPGASVKVSCKASGYTFTTYWMHWVRQAPGQGLEWMGMIDPSDSYTTYAQKFQGRVTLTVDTSTSTAYMELSSLRSEDTAVYYCARGSGPGLFAYWGQGTLVTVSS
VL: DIQETQSPSSLSASVGDRVTITCRASQDIRNYLNWYQQKPGKAPKLLIYHTSRLQSGVPSRFSGSGSGTDYTLTISSLQPEDFATYYCQQGNMPPYTFGQGTKVEIKR
notes: Humanized IgG1 kappa
For the molecule B1, the “EC50 (read off the curve)” value in assay [1] was around 0.03 µg/mL. In assay [2], the “Endocytosis rate (%) on NCI-H358 cells, 2 h” value was determined as 34.3%. Moreover, the “Endocytosis rate (%) on NCI-H358 cells, 4 h” value in assay [2] was 56.1%. The values for the EC50 in assay [3], in assay [4] and in assay [5] were 0.00858 µg/mL, 0.012 µg/mL and 0.0357 µg/mL, respectively.

B2: 27H8H3-hz1 (antibody, human IgG1, kappa, V domains shown)
VH: B1 VH with Q13K, T59S, A97T
VL: B1 VL with D28G, R30S, Q55H, G66V, Y71F, Y87F, M93T, P94L
notes: Humanized IgG1 kappa
For the molecule B2, the “EC50 (read off the curve)” value in assay [1] was around 0.05 µg/mL. Further, the “Endocytosis rate (%) on NCI-H358 cells, 2 h” value in assay [2] was 49.2%. Besides, the “Endocytosis rate (%) on NCI-H358 cells, 4 h” value in assay [2] was found to be 73.4%. The EC50 came to 0.00815 µg/mL in assay [3], 0.0348 µg/mL in assay [4] and 0.0594 µg/mL in assay [5].

One may read the EC50 (read off the curve) as the midpoint of the concentration-response curve. Lower therefore signals higher potency in that assay. The EC50 is the concentration that produces a half-maximal response. Low readings indicate an effect from little substance, high ones a need for much substance.
